First the molecules themselves.
B1: Double-stranded RNA-binding protein Staufen homolog 1, residues 183 to 249; numbered along this chain, O95793 (parent)
chain: KSEISQVFEIALKRNLPVNFEVARESGPPHMKNFVTKVSVGEFVGEGEGKSKKISKKNAAIAVLEEL

± gives the uncertainty stated by the source.

The variants in this data set derive from B1. In words: abundance fitness (aPCA) (normalised: wild type 0, dead -1); higher = more abundant; growth selection in yeast, the domain comes from the species named. The note with it: Homo sapiens.
KSEISQVFEIALKRNLPVNFEVARESGPPGMKNFVTKVSVGEFVGEGEGKSKKISKKNAAIAVLEEL [H30G]: the abundance fitness is -0.017 ± 0.039.

With KSEISQVFEIALKRNLPVNFEVARESGPPFMKNFVTKVSVGEFVGEGEGKSKKISKKNAAIAVLEEL [H30F], the abundance fitness is -0.278 ± 0.056.

As for KSEISQVFEIALKRNLPVNFEVARESGPPKMKNFVTKVSVGEFVGEGEGKSKKISKKNAAIAVLEEL [H30K], the abundance fitness is 0.022 ± 0.052.

As to KSEISQVFEIALKRNLPVNFEVARESGPPWMKNFVTKVSVGEFVGEGEGKSKKISKKNAAIAVLEEL [H30W], the abundance fitness is -0.365 ± 0.064.

Take KSEISQVFEIALKRNLPVNFEVARESGPPNMKNFVTKVSVGEFVGEGEGKSKKISKKNAAIAVLEEL [H30N]: the abundance fitness was 0.078 ± 0.064.

As for KSEISQVFEIALKRNLPVNFEVARESGPPLMKNFVTKVSVGEFVGEGEGKSKKISKKNAAIAVLEEL [H30L], the abundance fitness is -0.255 ± 0.037.

Turning to KSEISQVFEIALKRNLPVNFEVARESGPPRMKNFVTKVSVGEFVGEGEGKSKKISKKNAAIAVLEEL [H30R], the abundance fitness is -0.077 ± 0.039.

As to KSEISQVFEIALKRNLPVNFEVARESGPPVMKNFVTKVSVGEFVGEGEGKSKKISKKNAAIAVLEEL [H30V], the abundance fitness is -0.353 ± 0.045.

For the variant KSEISQVFEIALKRNLPVNFEVARESGPPCMKNFVTKVSVGEFVGEGEGKSKKISKKNAAIAVLEEL [H30C], the abundance fitness is -0.207 ± 0.066.

For the variant KSEISQVFEIALKRNLPVNFEVARESGPPIMKNFVTKVSVGEFVGEGEGKSKKISKKNAAIAVLEEL [H30I], the abundance fitness was -0.288 ± 0.066.

With KSEISQVFEIALKRNLPVNFEVARESGPPMMKNFVTKVSVGEFVGEGEGKSKKISKKNAAIAVLEEL [H30M], the abundance fitness is -0.115 ± 0.06.

For KSEISQVFEIALKRNLPVNFEVARESGPPPMKNFVTKVSVGEFVGEGEGKSKKISKKNAAIAVLEEL [H30P], the abundance fitness is -0.221 ± 0.046.

For KSEISQVFEIALKRNLPVNFEVARESGPPYMKNFVTKVSVGEFVGEGEGKSKKISKKNAAIAVLEEL [H30Y], the abundance fitness was -0.208 ± 0.054.

For the variant KSEISQVFEIALKRNLPVNFEVARESGPPSMKNFVTKVSVGEFVGEGEGKSKKISKKNAAIAVLEEL [H30S], the abundance fitness is -0.114 ± 0.043.

On to KSEISQVFEIALKRNLPVNFEVARESGPPAMKNFVTKVSVGEFVGEGEGKSKKISKKNAAIAVLEEL [H30A], for which the abundance fitness is -0.139 ± 0.043.

Take KSEISQVFEIALKRNLPVNFEVARESGPPEMKNFVTKVSVGEFVGEGEGKSKKISKKNAAIAVLEEL [H30E]: the abundance fitness is -0.037 ± 0.058.

With KSEISQVFEIALKRNLPVNFEVARESGPPQMKNFVTKVSVGEFVGEGEGKSKKISKKNAAIAVLEEL [H30Q], the abundance fitness is -0.11 ± 0.055.

Turning to KSEISQVFEIALKRNLPVNFEVARESGPRHMKNFVTKVSVGEFVGEGEGKSKKISKKNAAIAVLEEL [P29R], the abundance fitness is -0.08 ± 0.032.

As to KSEISQVFEIALKRNLPVNFEVARESGPCHMKNFVTKVSVGEFVGEGEGKSKKISKKNAAIAVLEEL [P29C], the abundance fitness is -0.198 ± 0.056.

Consider KSEISQVFEIALKRNLPVNFEVARESGPYHMKNFVTKVSVGEFVGEGEGKSKKISKKNAAIAVLEEL [P29Y], for which the abundance fitness was -0.259 ± 0.073.

On to KSEISQVFEIALKRNLPVNFEVARESGPFHMKNFVTKVSVGEFVGEGEGKSKKISKKNAAIAVLEEL [P29F], for which the abundance fitness was -0.28 ± 0.082.

For KSEISQVFEIALKRNLPVNFEVARESGPEHMKNFVTKVSVGEFVGEGEGKSKKISKKNAAIAVLEEL [P29E], the abundance fitness is -0.022 ± 0.056.

Take KSEISQVFEIALKRNLPVNFEVARESGPHHMKNFVTKVSVGEFVGEGEGKSKKISKKNAAIAVLEEL [P29H]: the abundance fitness is -0.105 ± 0.1.

In the case of KSEISQVFEIALKRNLPVNFEVARESGPLHMKNFVTKVSVGEFVGEGEGKSKKISKKNAAIAVLEEL [P29L], the abundance fitness is -0.273 ± 0.038.

Take KSEISQVFEIALKRNLPVNFEVARESGPMHMKNFVTKVSVGEFVGEGEGKSKKISKKNAAIAVLEEL [P29M]: the abundance fitness is -0.114 ± 0.046.

Turning to KSEISQVFEIALKRNLPVNFEVARESGPWHMKNFVTKVSVGEFVGEGEGKSKKISKKNAAIAVLEEL [P29W], the abundance fitness is -0.274 ± 0.042.

In the case of KSEISQVFEIALKRNLPVNFEVARESGPIHMKNFVTKVSVGEFVGEGEGKSKKISKKNAAIAVLEEL [P29I], the abundance fitness was -0.205 ± 0.081.

KSEISQVFEIALKRNLPVNFEVARESGPAHMKNFVTKVSVGEFVGEGEGKSKKISKKNAAIAVLEEL [P29A]: the abundance fitness was -0.005 ± 0.045.

For the variant KSEISQVFEIALKRNLPVNFEVARESGPKHMKNFVTKVSVGEFVGEGEGKSKKISKKNAAIAVLEEL [P29K], the abundance fitness is -0.061 ± 0.047.

For the variant KSEISQVFEIALKRNLPVNFEVARESGPDHMKNFVTKVSVGEFVGEGEGKSKKISKKNAAIAVLEEL [P29D], the abundance fitness was -0.051 ± 0.097.

Consider KSEISQVFEIALKRNLPVNFEVARESGPTHMKNFVTKVSVGEFVGEGEGKSKKISKKNAAIAVLEEL [P29T], for which the abundance fitness was -0.111 ± 0.045.

In the case of KSEISQVFEIALKRNLPVNFEVARESGPSHMKNFVTKVSVGEFVGEGEGKSKKISKKNAAIAVLEEL [P29S], the abundance fitness was -0.04 ± 0.04.

Turning to KSEISQVFEIALKRNLPVNFEVARESGPVHMKNFVTKVSVGEFVGEGEGKSKKISKKNAAIAVLEEL [P29V], the abundance fitness was -0.205 ± 0.045.

For KSEISQVFEIALKRNLPVNFEVARESGPGHMKNFVTKVSVGEFVGEGEGKSKKISKKNAAIAVLEEL [P29G], the abundance fitness came to 0.052 ± 0.043.

For KSEISQVFEIALKRNLPVNFEVARESGPPHKKNFVTKVSVGEFVGEGEGKSKKISKKNAAIAVLEEL [M31K], the abundance fitness stood at 0.104 ± 0.053.

Take KSEISQVFEIALKRNLPVNFEVARESGPPHWKNFVTKVSVGEFVGEGEGKSKKISKKNAAIAVLEEL [M31W]: the abundance fitness is -0.208 ± 0.038.

With KSEISQVFEIALKRNLPVNFEVARESGPPHGKNFVTKVSVGEFVGEGEGKSKKISKKNAAIAVLEEL [M31G], the abundance fitness was -0.013 ± 0.036.

With KSEISQVFEIALKRNLPVNFEVARESGPPHIKNFVTKVSVGEFVGEGEGKSKKISKKNAAIAVLEEL [M31I], the abundance fitness is -0.12 ± 0.061.

Consider KSEISQVFEIALKRNLPVNFEVARESGPPHYKNFVTKVSVGEFVGEGEGKSKKISKKNAAIAVLEEL [M31Y], for which the abundance fitness was -0.089 ± 0.066.

On to KSEISQVFEIALKRNLPVNFEVARESGPPHCKNFVTKVSVGEFVGEGEGKSKKISKKNAAIAVLEEL [M31C], for which the abundance fitness turned out to be 0.073 ± 0.047.

The values above are taken from the Human Domainome abundance scans (Beltran et al. 2025).
